The source of these data is US20230251254A1, “METHOD FOR EVALUATING INTERACTION BETWEEN IMMOBILIZED SUBSTANCE IMMOBILIZED DIRECTLY OR INDIRECTLY ON SUBSTRATE AND PROXIMITY-DEPENDENT MODIFYING ENZYMELABELED SUBSTANCE TO BE ANALYZED” (CELLFREE SCIENCES CO.,LTD., priority 2020, published 2023).

Changes are numbered by the printed parent chain. In names and notes the source's numbering stands.

Assay [1] relates to interaction between TP53 and MDM2 or between Iκβα and RelA. Kind of assay: Comparison of altered biotinylation enzymes by the method of Example 2 (Example 4). The conditions noted are these: for specificity / non-specific signal of labeling: luminescence detection; for labeling activity on introduction of Q141R mutation into AVVA mutant: compared with AVVA mutant without Q141R. It counts as biochemical. As for the experimental part:
In this Example, various altered biotinylation enzymes were evaluated by the method used in Example 2.
Specifically, by a method similar to that for AirID (SEQ ID NO: 3) in Example 2, the interaction between TP53 and MDM2 or between Iκβα and RelA was analyzed using BioID (SEQ ID NO: 1), TurboID (SEQ ID NO: 2), an AirID-S118G mutant (SEQ ID NO: 12), an AWA-R118S mutant (SEQ ID NO: 13), an AVVA-R118G mutant (SEQ ID NO: 14), an AWA-R118S, Q141R mutant (SEQ ID NO: 15), and an AVVA-R118G, Q141R mutant (SEQ ID NO: 16).
The results in the figures were standardized in that the dispensation amount of the magnetic beads on the wells of the plate was 75 nL. An exposure time at the time of luminescence detection with LAS4000 (manufactured by GE Healthcare) was set to 3 minutes for TurboID, and 10 minutes for the protein of any other sequence identification number. A signal value was obtained from a measurement image through use of Array-Pro Analyzer™.

Assay [2] concerns the target T1, FLAG-GST-fused MDM2 (UniProt P23804 1-489).
T1 construct: Immobilized on glutathione magnetic beads on the non-denatured protein array; Order of the parts follows the printed name FLAG-GST; also called FLAG-GST-fused immobilized substance (MDM2); not shown: FLAG tag protein; GST protein (glutathione S-transferase tag)
Kind of assay: proximity-biotinylation bead array, streptavidin-HRP luminescence; labeling 26°C 3 h; exposure 10 min.

Assay [3] concerns the target T2, FLAG-GST-fused RelA (UniProt Q04206 1-551).
T2 construct: Immobilized on glutathione magnetic beads on the non-denatured protein array; Order of the parts follows the printed name FLAG-GST; also called FLAG-GST-fused immobilized substance (RelA); not shown: FLAG tag protein; GST protein (glutathione S-transferase tag)
The assay is described as above.

The target in assay [4] is T1, FLAG-GST-fused MDM2. Kind of assay: proximity-biotinylation bead array, streptavidin-HRP luminescence; labeling 26°C 1 h; exposure 10 min.
Assay [5] concerns the target T2, FLAG-GST-fused RelA. The description is as above.
Assay [6] has as its target T1, FLAG-GST-fused MDM2. Kind of assay: proximity-biotinylation bead array, streptavidin-HRP luminescence; labeling 26°C; exposure 10 min.
The target of assay [7] is T1, FLAG-GST-fused MDM2. As to the kind of experiment: proximity-biotinylation bead array, streptavidin-HRP luminescence; labeling 26°C 30 min; exposure 10 min.
Assay [8] concerns the target T2, FLAG-GST-fused RelA. The assay is described as above.

T1 sequence (P23804 whole entry, the tested form may be a part): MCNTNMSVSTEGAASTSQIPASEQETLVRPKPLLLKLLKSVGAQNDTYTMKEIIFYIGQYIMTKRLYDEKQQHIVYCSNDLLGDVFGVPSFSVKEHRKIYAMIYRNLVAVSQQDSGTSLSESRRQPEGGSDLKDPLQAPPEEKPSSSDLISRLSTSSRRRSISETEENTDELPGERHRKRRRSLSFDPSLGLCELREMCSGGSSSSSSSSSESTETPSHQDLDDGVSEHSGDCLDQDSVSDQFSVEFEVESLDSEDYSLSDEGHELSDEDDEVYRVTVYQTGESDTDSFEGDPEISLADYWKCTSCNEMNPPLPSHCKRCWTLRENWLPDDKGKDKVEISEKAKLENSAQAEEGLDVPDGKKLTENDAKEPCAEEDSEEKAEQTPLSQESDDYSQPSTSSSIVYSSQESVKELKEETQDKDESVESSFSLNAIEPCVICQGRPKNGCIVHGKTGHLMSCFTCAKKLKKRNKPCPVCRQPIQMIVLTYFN
T2 sequence (Q04206 other isoform, or with tags, fused parts or gaps): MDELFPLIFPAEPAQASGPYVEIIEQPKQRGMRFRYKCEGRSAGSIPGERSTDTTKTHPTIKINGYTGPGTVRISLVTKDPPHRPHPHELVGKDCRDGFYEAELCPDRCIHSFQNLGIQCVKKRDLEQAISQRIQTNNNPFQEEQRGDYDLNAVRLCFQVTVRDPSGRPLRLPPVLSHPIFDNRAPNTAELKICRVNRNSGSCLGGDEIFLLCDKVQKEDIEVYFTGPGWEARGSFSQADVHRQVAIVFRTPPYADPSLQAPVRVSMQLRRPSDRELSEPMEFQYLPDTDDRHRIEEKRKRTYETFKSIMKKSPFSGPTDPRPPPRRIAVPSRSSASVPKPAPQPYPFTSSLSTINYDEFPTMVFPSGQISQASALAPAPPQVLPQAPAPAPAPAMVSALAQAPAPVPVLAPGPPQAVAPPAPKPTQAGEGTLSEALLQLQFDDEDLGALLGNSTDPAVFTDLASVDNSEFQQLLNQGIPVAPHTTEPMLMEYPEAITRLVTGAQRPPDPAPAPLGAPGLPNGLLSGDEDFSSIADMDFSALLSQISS

In the case of “BioID: proximity-dependent biotin ligase, SEQ ID NO: 1 [reference compound]”, the “specificity / non-specific signal of labeling” value in assay [1] (75 nL magnetic beads) is reported as “low non-specificity”. In addition, the biotin modification activity result in assay [1] (compared with the other enzymes) is “lower biotin modification activity than the other enzymes”.

B1: AWA-R118S, Q141R mutant: proximity-dependent biotin ligase, SEQ ID NO: 15 (protein)
chain: MSEQWSRKREILALLSSGHFVSGEELATQLGISRTAVSKHIAALEEYGVDIYSVKGKGYKLANPISLIDESKLKSAINNRCFYFDEIPSTNGFMLKHAEELKSGDICVAEYQSAGRGSRGRTWVSPYGCHLYFSLYWRFPRGMAQAMGLSLVVACSLVKVLKSFGVDGVGVKWPNDIYLNHKKLAGVLIEMSGQADSECHLVIGIGINMAMSEQQGKKIDQPWSDLSSLTSMPDKTELLIALQKQLKQDLELFEREGLKAFQPRWQEADLFYGKQIKLLMGENQVEGICRGIDEQGAVLLETDDGIQAFIGGEISLRAA
modifications: AVVA-R118S,Q141R
Turning to B1, the “specificity / non-specific signal of labeling” value in assay [1] (75 nL magnetic beads) is reported as “extremely high specificity”. In assay [1], the “labeling activity on introduction of Q141R mutation into AVVA mutant” value is listed as “enhances its labeling activity”.

B2: AVVA-R118G mutant: proximity-dependent biotin ligase, SEQ ID NO: 14 (protein)
chain: B1 chain with S118G, R141Q
modifications: AVVA-R118G
As to B2, the “specificity / non-specific signal of labeling” value in assay [1] (75 nL magnetic beads) is “extremely high specificity”.

B3: AVVA-R118G, Q141R mutant: proximity-dependent biotin ligase, SEQ ID NO: 16 (protein)
chain: B1 chain with S118G
modifications: AVVA-R118G,Q141R
As for B3, in assay [1] (75 nL magnetic beads), the “specificity / non-specific signal of labeling” value is listed as “extremely high specificity”. The “labeling activity on introduction of Q141R mutation into AVVA mutant” value in assay [1] is given as “enhances its labeling activity”.

B4: AWA-R118S mutant: proximity-dependent biotin ligase, SEQ ID NO: 13 (protein)
chain: B1 chain with R141Q
modifications: AVVA-R118S
Turning to B4, in assay [1] (75 nL magnetic beads), the “specificity / non-specific signal of labeling” value is recorded as “extremely high specificity”.

B5: TurboID: proximity-dependent biotin ligase, SEQ ID NO: 2 (protein)
chain: MKDNTVPLKLIALLANGEFHSGEQLGETLGMSRAAINKHIQTLRDWGVDVFTVPGKGYSLPEPIPLLNAKQILGQLDGGSVAVLPVVDSTNQYLLDRIGELKSGDACIAEYQQAGRGSRGRKWFSPFGANLYLSMFWRLKRGPAAAIGLGPVIGIVMAEALRKLGADKVRVKWPNDLYLQDRKLAGILVELAGITGDAAQIVIGAGINVAMRRVEESVVNQGWITLQEAGINLDRNTLAATLIRELRAALELFEQEGLAPYLPRWEKLDNFINRPVKLIIGDKEIFGISRGIDKQGALLLEQDGVIKPWMGGEISLRSAEK
modifications: TurboID
In the case of B5, in assay [1] (75 nL magnetic beads, exposure 3 minutes for TurboID), the signal intensity result is given as “high signal intensity”. In assay [1] (75 nL magnetic beads), the “specificity / non-specific signal of labeling” value is “a certain signal (non-specific) is found even for an interaction that should be negative”.

B6: AVVA-R118S mutant-fused Iκβα (other)
fusion protein: MSEQWSRKREILALLSSGHFVSGEELATQLGISRTAVSKHIAALEEYGVDIYSVKGKGYKLANPISLIDESKLKSAINNRCFYFDEIPSTNGFMLKHAEELKSGDICVAEYQSAGRGSRGRTWVSPYGCHLYFSLYWRFPQGMAQAMGLSLVVACSLVKVLKSFGVDGVGVKWPNDIYLNHKKLAGVLIEMSGQADSECHLVIGIGINMAMSEQQGKKIDQPWSDLSSLTSMPDKTELLIALQKQLKQDLELFEREGLKAFQPRWQEADLFYGKQIKLLMGENQVEGICRGIDEQGAVLLETDDGIQAFIGGEISLRAAMFQAAERPQEWAMEGPRDGLKKERLLDDRHDSGLDSMKDEEYEQMVKELQEIRLEPQEVPRSSEPWKQQLTEDGDSFLHLAIIHEEKALTMEVIRQVKGDLAFLNFQNNLQQTPLHLAVITNQPEIAEALLGAGCDPELRDFRGNTPLHLACEQGCLASVGVLTQSCTTPHLHSILKATNYNGHTCLHLASIHGYLGIVELLVSLGADVNAQEPCNGRTALHLAVDLQNPDLVSLLLKCGADVNRVTYQGYSPYQLTWGRPSTRIQQQLGQLTLENLQMLPESEDEESYDTESEFTEFTEDELPYDDCVFGGQRLTL
Take B6: the signal value with FLAG-GST-fused MDM2 [2] amounted to 330; with FLAG-GST-fused RelA [3] it was 50000; with FLAG-GST-fused MDM2 [4], 310; in the assay with FLAG-GST-fused RelA [5] it was 11100; with FLAG-GST-fused MDM2 [7], 320. In addition, in the assay with FLAG-GST-fused MDM2 [6], the binding result is “no binding”.

B7: AVVA-R118G,Q141R mutant-fused Iκβα (other)
fusion protein: B6 fusion protein with S118G, Q141R
As to B7, the signal value in the assay with FLAG-GST-fused MDM2 [2] is 430; with FLAG-GST-fused RelA [3], > 65000; in the assay with FLAG-GST-fused MDM2 [4] it was 280; with FLAG-GST-fused RelA [5], 10100; with FLAG-GST-fused MDM2 [7], 550. Moreover, the binding result with FLAG-GST-fused MDM2 [6] is recorded as “no binding”.

B8: AVVA-R118G mutant-fused Iκβα (other)
fusion protein: B6 fusion protein with S118G
B8: the signal value with FLAG-GST-fused MDM2 [2] worked out at 310; in the assay with FLAG-GST-fused RelA [3] it was 39400; with FLAG-GST-fused MDM2 [4] it was 230; with FLAG-GST-fused MDM2 [7], 140; in the assay with FLAG-GST-fused RelA [8] it was 6900. Moreover, in the assay with FLAG-GST-fused MDM2 [6], the binding result was “no binding”.

B9: AirID: proximity-dependent biotin ligase, SEQ ID NO: 3 (protein)
chain: MKDNTVPLTLISILADGEFHSGEQLGEQLGMSRAAINKHIKTLRDWGVDVFRVQGKGYCLPEPIQLLDEEKIRQQLDEGSVTVLPVIDSTNQYLLDRLDELTSGDVCIAEYQQAGRGSRGRKWFSPFGANLYLSMYWRLEQGPAAAMGLSLVIGIVMAETLQKLGADGVRVKWPNDLYLNDRKLAGILVEMTGKTGDAAHIVIGAGINLSMREPETDEVDQSWINLQEAGITIDRNQLAARLIKDLRSALRQFEQQGLAPFLSRWEALDNFINRPVKLIIGDREIHGIARGINEQGALLLEQDGVIKPWIGGEISLRSA
modifications: AirID
Turning to B9, the “specificity / non-specific signal of labeling” value in assay [1] (75 nL magnetic beads) was “extremely high specificity”.

B10: AirID-S118G mutant: proximity-dependent biotin ligase, SEQ ID NO: 12 (protein)
chain: B9 chain with S118G
modifications: AirID_S118G
Take B10: the “specificity / non-specific signal of labeling” value in assay [1] (75 nL magnetic beads) is reported as “extremely high specificity”.
